Assay results from publication PMC4520091.

Assays:
yPrp3CTF R322A [1] = test: ITC; conditions: 20 C, GAGA-fused RNA; EMSA: 20 mM Tris-HCl pH 7.0, 150 mM NaCl, 2 mM DTT, 0.5 ug/ul tRNA, 4 C; titrations: 20 mM HEPES pH 6.8, 150 mM NaCl, 0.33 ug/ul tRNA; human FL/N/C: 10 mM Tris …
yPrp3CTF R304A [2] = test: ITC; conditions: 20 C, GAGA-fused RNA; EMSA: 20 mM Tris-HCl pH 7.0, 150 mM NaCl, 2 mM DTT, 0.5 ug/ul tRNA, 4 C; titrations: 20 mM HEPES pH 6.8, 150 mM NaCl, 0.33 ug/ul tRNA; human FL/N/C: 10 mM Tris …
yPrp3DUF1115 [3] = test: ITC; conditions: EMSA: 20 mM Tris-HCl pH 7.0, 150 mM NaCl, 2 mM DTT, 0.5 ug/ul tRNA, 4 C; titrations: 20 mM HEPES pH 6.8, 150 mM NaCl, 0.33 ug/ul tRNA; human FL/N/C: 10 mM Tris …
yPrp3CTF [4] = test: ITC; conditions: 20 C, GAGA-fused RNA; EMSA: 20 mM Tris-HCl pH 7.0, 150 mM NaCl, 2 mM DTT, 0.5 ug/ul tRNA, 4 C; titrations: 20 mM HEPES pH 6.8, 150 mM NaCl, 0.33 ug/ul tRNA; human FL/N/C: 10 mM Tris …
yPrp3CTF R322A [5] = test: EMSA; conditions: tRNA competitor; apparent Kd; EMSA: 20 mM Tris-HCl pH 7.0, 150 mM NaCl, 2 mM DTT, 0.5 ug/ul tRNA, 4 C; titrations: 20 mM HEPES pH 6.8, 150 mM NaCl, 0.33 ug/ul tRNA; human FL/N/C: 10 mM Tris …
yPrp3CTF R304A [6] = test: EMSA; conditions: tRNA competitor; apparent Kd; EMSA: 20 mM Tris-HCl pH 7.0, 150 mM NaCl, 2 mM DTT, 0.5 ug/ul tRNA, 4 C; titrations: 20 mM HEPES pH 6.8, 150 mM NaCl, 0.33 ug/ul tRNA; human FL/N/C: 10 mM Tris …
yPrp3DUF1115 [7] = test: EMSA; conditions: tRNA competitor; apparent Kd; EMSA: 20 mM Tris-HCl pH 7.0, 150 mM NaCl, 2 mM DTT, 0.5 ug/ul tRNA, 4 C; titrations: 20 mM HEPES pH 6.8, 150 mM NaCl, 0.33 ug/ul tRNA; human FL/N/C: 10 mM Tris …
yPrp3CTF [8] = test: EMSA; conditions: tRNA competitor, EMSA: 20 mM Tris-HCl pH 7.0, 150 mM NaCl, 2 mM DTT, 0.5 ug/ul tRNA, 4 C, titrations: 20 mM HEPES pH 6.8, 150 mM NaCl, 0.33 ug/ul tRNA, human FL/N/C: 10 mM Tris …

Substance: yU4/U6 stem II+13nt
- Kd (yPrp3CTF R322A [1]): 400 nM
- Kd (yPrp3CTF R304A [2]): 260 nM
- Kd (yPrp3DUF1115 [3]): 380 nM
- Kd (yPrp3CTF [4]): 110 nM
- Kd (yPrp3CTF R322A [5]): 2630 nM
- Kd (yPrp3CTF R304A [6]): 1580 nM
- Kd (yPrp3DUF1115 [7]): 1830 nM
- Kd (yPrp3CTF [8]; apparent Kd): 920 nM

Substance: yU4/U6 stem II+13nt U4 C12G
- binding signal (fold lower affinity than wt) (yPrp3CTF [8]): 2

Substance: yU4/U6 stem II+13nt U6 C69G
- binding signal (fold lower affinity than wt) (yPrp3CTF [8]): 2
